Laboratory results published in the supplement of paper PMC10567573.

B1: SPOPL (parent)
chain: PDDKLTLFCEVSVVQDSVNISGHT
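Note: lentivirally expressed fusions sorted by FACS into six bins by GFP to DsRed ratio, PSI derived from sequencing read proportions per bin multiplied by bin number.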

Variants of: B1
Test: protein stability index of a GFP-peptide fusion (GPS, HEK-293T) (PSI 1-6); higher = more stable
Details: c terminus: a fixed tail appended
PDDKLTLFCEVSVVQDSVNNSGHT [I20N] gave a protein stability index of 3.08. With PDDKLTLFCEVSVVQDSVNYSGHT [I20Y] the protein stability index was 2.18. Work on PDDKLTLFCEVSVVQDSVNMSGHT [I20M] yielded a protein stability index of 1.78. For PDDKLTLFCEVSVVQDSVNGSGHT [I20G], the protein stability index was 3.21. PDDKLTLFCEVSVVQDSVNHSGHT [I20H] gave a protein stability index of 3.43. For PDDKLTLFCEVSVVQDSVNASGHT [I20A], the protein stability index was 2.74. Variant PDDKLTLFCEVSVVQDSVNVSGHT [I20V] has a protein stability index of 2.55. PDDKLTLFCEVSVVQDSVNDSGHT [I20D] gave a protein stability index of 3.77. Variant PDDKLTLFCEVSVVQDSVNKSGHT [I20K] has a protein stability index of 2.56. PDDKLTLFCEVSVVQDSVNCSGHT [I20C] gave a protein stability index of 2.86. PDDKLTLFCEVSVVQDSVNPSGHT [I20P] gave a protein stability index of 2.59. In the case of PDDKLTLFCEVSVVQDSVNESGHT [I20E], the protein stability index is reported as 3.42. Work on PDDKLTLFCEVSVVQDSVNSSGHT [I20S] yielded a protein stability index of 3.04. PDDKLTLFCEVSVVQDSVNQSGHT [I20Q] gave a protein stability index of 3.49. PDDKLTLFCEVSVVQDSVNWSGHT [I20W] gave a protein stability index of 2.04. In the case of PDDKLTLFCEVSVVQDSVNLSGHT [I20L], the protein stability index is reported as 2.56. In the case of PDDKLTLFCEVSVVQDSVNFSGHT [I20F], the protein stability index is reported as 1.31. Variant PDDKLTLFCEVSVVQDSVNTSGHT [I20T] has a protein stability index of 3.2. PDDKLTLFCEVSVVQDSVQISGHT [N19Q] gave a protein stability index of 1.39. Work on PDDKLTLFCEVSVVQDSVIISGHT [N19I] yielded a protein stability index of 1.39. With PDDKLTLFCEVSVVQDSVVISGHT [N19V] the protein stability index was 2.65. PDDKLTLFCEVSVVQDSVRISGHT [N19R] gave a protein stability index of 1.2. PDDKLTLFCEVSVVQDSVPISGHT [N19P] gave a protein stability index of 2.29. With PDDKLTLFCEVSVVQDSVTISGHT [N19T] the protein stability index was 1.35. Variant PDDKLTLFCEVSVVQDSVGISGHT [N19G] has a protein stability index of 1.74. Work on PDDKLTLFCEVSVVQDSVKISGHT [N19K] yielded a protein stability index of 1.92. PDDKLTLFCEVSVVQDSVSISGHT [N19S] gave a protein stability index of 3.03. PDDKLTLFCEVSVVQDSVAISGHT [N19A] showed a protein stability index of 2.53. Work on PDDKLTLFCEVSVVQDSVDISGHT [N19D] yielded a protein stability index of 2.41. For PDDKLTLFCEVSVVQDSVCISGHT [N19C], the protein stability index was 1.05. PDDKLTLFCEVSVVQDSRNISGHT [V18R] gave a protein stability index of 2.03. For PDDKLTLFCEVSVVQDSGNISGHT [V18G], the protein stability index was 2.83. Variant PDDKLTLFCEVSVVQDSPNISGHT [V18P] has a protein stability index of 2.7. PDDKLTLFCEVSVVQDSNNISGHT [V18N] showed a protein stability index of 2.99. Variant PDDKLTLFCEVSVVQDSENISGHT [V18E] has a protein stability index of 3.04. PDDKLTLFCEVSVVQDSKNISGHT [V18K] gave a protein stability index of 2.69. In the case of PDDKLTLFCEVSVVQDSDNISGHT [V18D], the protein stability index is reported as 3.67. Work on PDDKLTLFCEVSVVQDSTNISGHT [V18T] yielded a protein stability index of 2.81. PDDKLTLFCEVSVVQDSLNISGHT [V18L] gave a protein stability index of 1.57. Work on PDDKLTLFCEVSVVQDSHNISGHT [V18H] yielded a protein stability index of 2.6. With PDDKLTLFCEVSVVQDSSNISGHT [V18S] the protein stability index was 2.82. PDDKLTLFCEVSVVQDSINISGHT [V18I] gave a protein stability index of 2.09. Variant PDDKLTLFCEVSVVQDSYNISGHT [V18Y] has a protein stability index of 1.77. Variant PDDKLTLFCEVSVVQDSANISGHT [V18A] has a protein stability index of 2.83. PDDKLTLFCEVSVVQDSCNISGHT [V18C] gave a protein stability index of 1.85. Work on PDDKLTLFCEVSVVQDSFNISGHT [V18F] yielded a protein stability index of 1.73. With PDDKLTLFCEVSVVQDSQNISGHT [V18Q] the protein stability index was 3.27. PDDKLTLFCEVSVVQDSMNISGHT [V18M] gave a protein stability index of 2.05. Work on PDDKLTLFCEVSVVQRSVNISGHT [D16R] yielded a protein stability index of 1.21. With PDDKLTLFCEVSVVQGSVNISGHT [D16G] the protein stability index was 2.01. Work on PDDKLTLFCEVSVVQNSVNISGHT [D16N] yielded a protein stability index of 1.8. Work on PDDKLTLFCEVSVVQVSVNISGHT [D16V] yielded a protein stability index of 3.7. With PDDKLTLFCEVSVVQPSVNISGHT [D16P] the protein stability index was 1.49. In the case of PDDKLTLFCEVSVVQKSVNISGHT [D16K], the protein stability index is reported as 1.66. PDDKLTLFCEVSVVQQSVNISGHT [D16Q] showed a protein stability index of 1.27. Work on PDDKLTLFCEVSVVQHSVNISGHT [D16H] yielded a protein stability index of 1.15. For PDDKLTLFCEVSVVQTSVNISGHT [D16T], the protein stability index was 1.53. Work on PDDKLTLFCEVSVVQWSVNISGHT [D16W] yielded a protein stability index of 2.43. Variant PDDKLTLFCEVSVVQSSVNISGHT [D16S] has a protein stability index of 2.32. In the case of PDDKLTLFCEVSVVQDQVNISGHT [S17Q], the protein stability index is reported as 2.07. For PDDKLTLFCEVSVVQDRVNISGHT [S17R], the protein stability index was 1.73. PDDKLTLFCEVSVVQDAVNISGHT [S17A] showed a protein stability index of 2.29. PDDKLTLFCEVSVVQDGVNISGHT [S17G] gave a protein stability index of 2. Variant PDDKLTLFCEVSVVQDFVNISGHT [S17F] has a protein stability index of 4.06. With PDDKLTLFCEVSVVQDDVNISGHT [S17D] the protein stability index was 3.11. PDDKLTLFCEVSVVQDVVNISGHT [S17V] showed a protein stability index of 1.03. PDDKLTLFCEVSVVQDTVNISGHT [S17T] showed a protein stability index of 1.85. PDDKLTLFCEVSVVQDPVNISGHT [S17P] gave a protein stability index of 2.85. With PDDKLTLFCEVSVVQDKVNISGHT [S17K] the protein stability index was 3.12. Variant PDDKLTLFCEVSVVQDCVNISGHT [S17C] has a protein stability index of 2.61. In the case of PDDKLTLFCEVSVVQDHVNISGHT [S17H], the protein stability index is reported as 1.38. In the case of PDDKLTLFCEVSVVQDYVNISGHT [S17Y], the protein stability index is reported as 2.99. PDDKLTLFCEVSVVQDNVNISGHT [S17N] gave a protein stability index of 1.84. PDDKLTLFCEVSVVQDEVNISGHT [S17E] gave a protein stability index of 2.99. Variant PDDKLTLFCEVSVVQDMVNISGHT [S17M] has a protein stability index of 3.15. Work on PDDKLTLFCEVSVVQDLVNISGHT [S17L] yielded a protein stability index of 3.52. With PDDKLTLFCEVSVVQDSVNIQGHT [S21Q] the protein stability index was 3.3. Work on PDDKLTLFCEVSVVQDSVNIYGHT [S21Y] yielded a protein stability index of 1.85. With PDDKLTLFCEVSVVQDSVNIHGHT [S21H] the protein stability index was 1.61. With PDDKLTLFCEVSVVQDSVNIRGHT [S21R] the protein stability index was 2.47. Work on PDDKLTLFCEVSVVQDSVNICGHT [S21C] yielded a protein stability index of 1.5. PDDKLTLFCEVSVVQDSVNIPGHT [S21P] gave a protein stability index of 2.29. PDDKLTLFCEVSVVQDSVNIGGHT [S21G] showed a protein stability index of 2.74. PDDKLTLFCEVSVVQDSVNINGHT [S21N] gave a protein stability index of 2.2. Work on PDDKLTLFCEVSVVQDSVNIAGHT [S21A] yielded a protein stability index of 2.29. With PDDKLTLFCEVSVVQDSVNIEGHT [S21E] the protein stability index was 2.44. In the case of PDDKLTLFCEVSVVQDSVNIDGHT [S21D], the protein stability index is reported as 3.2. In the case of PDDKLTLFCEVSVVQDSVNILGHT [S21L], the protein stability index is reported as 1.68. Work on PDDKLTLFCEVSVVQDSVNIMGHT [S21M] yielded a protein stability index of 2.48. For PDDKLTLFCEVSVVQDSVNIIGHT [S21I], the protein stability index was 3.25. With PDDKLTLFCEVSVVQDSVNITGHT [S21T] the protein stability index was 3.16. PDDKLTLFCEVSVVQDSVNISCHT [G22C] showed a protein stability index of 2.59. In the case of PDDKLTLFCEVSVVQDSVNISDHT [G22D], the protein stability index is reported as 2.87. PDDKLTLFCEVSVVQDSVNISAHT [G22A] showed a protein stability index of 1.08.
